According to US20130177979A1, “METHODS AND COMPOSITIONS FOR CELL PERMEABLE STAT3 INHIBITOR” (University of Central Florida Research Foundation, Inc., priority 2010, published 2013):

What was measured:
[1] = biological target: T1, PpYLKTK (pY705 Stat3) (Homo sapiens, UniProt P40763); assay: SPR binding to Stat3-derived pTyr705 peptide PpYLKTK; details: immobilized on sensor chip, PpYLKTK as analyte
T1 construct: the Stat3-derived pTyr705 peptide, PpYLKTK
Method: (§1) Association and dissociation measurements were taken and the affinities were determined using Qdat software.
(§2) Surface plasmon resonance analysis. […] Various concentrations of pTyr peptides (analyte) in running buffer (1×PBS, 0.5% DMSO) were passed over the sensor chip to produce response signals. The response signals were referenced by subtracting the response generated by passing across a surface without the analytes. The association and dissociation rate constants were calculated using the Qdat software. The ratio of the association and dissociation rate constants was determined as the affinity (KD).

[2] = biological target: T2, GpYIKTE (pY701Stat1) (Homo sapiens, UniProt P42224); assay: SPR binding to Stat1 pY701 peptide GpYIKTE; details: immobilized on sensor chip, GpYIKTE as analyte
T2 construct: the Stat1 pY701 peptide, GpYIKTE
Method: as §1, §2

[3] = biological target: T3, PVpYHNQP (pY1086EGFR) (Homo sapiens, UniProt P00533); assay: SPR binding to EGFR pY1086 peptide PVpYHNQP; details: immobilized on sensor chip, PVpYHNQP as analyte
T3 construct: the pY1086 peptide of EGFR, PVpYHNQP
Method: as §1, §2

[4] = biological target: GpYLPQTV (IL-6R/gp130) (Homo sapiens, UniProt P40189, S904G); details: SPR; SPI, Stat3 SH2 domain or Stat3 immobilized on sensor chip, GpYLPQTV as analyte
Method: as §1, §2

[5] = biological target: T4, PEpYINQS (pY1068EGFR) (Homo sapiens, UniProt P00533); assay: SPR binding to EGFR pY1068 peptide PEpYINQS; details: immobilized on sensor chip, PEpYINQS as analyte
T4 construct: the pY1068 of EGFR, PEpYINQS
Method: as §1, §2

[6] = biological target: T5, GpYVKPQ (pY694Stat5) (Homo sapiens, UniProt P42229); assay: SPR binding to Stat5 pTyr peptide GpYVKPQ; details: immobilized on sensor chip, GpYVKPQ as analyte
T5 construct: the pTyr peptide of Stat5, GpYVKPQ
Method: as §1, §2

Substance | Kd [1] [µM] | Kd [2] [µM] | Kd [3] [µM] | Kd [4] [µM] | Kd [5] [µM] | Kd [6] [µM]
Stat3 SH2 domain: Purified His-tagged Stat3 SH2 domain, recombinant protein expressed in BL21(DE3) cells (FISKERERAILSTKPPGTFLLRFSESSK) | 1.6 | 6.6 | 2.6 | 0.03 | 0.4 | 5200
full-length Stat3: Purified His-tagged Stat3 protein, recombinant, expressed in BL21(DE3) cells | 0.9 | 4.4 |  | 0.02 |  | 1200
